Among the data in PMC3627602 are percent reduction of HUS1 associated, against wild-type MUTYH, percent reduction of RAD9 associated, against wild-type MUTYH and percent reduction of RAD9 bound, against wild-type MUTYH values, retold here.

The target of this assay is Q338H MBP–MUTYH (human). Nature of the assay: pull-down.

B1: RAD9:RAD1:HUS1 (9–1–1) complex, endogenous in HeLa nuclear extract (complex)
chain 1: MKCLVTGGNVKVLGKAVHSLSRIGDELYLEPLEDGLSLRTVNSSRSAYACFLFAPLFFQQYQAATPGQDLLRCKILMKSFLSVFRSLAMLEKTVEKCCISLNGRSSRLVVQLHCKFGVRKTHNLSFQDCESLQAVFDPASCPHMLRAPARVLGEAVLPFSPALAEVTLGIGRGRRVILRSYHEEEADSTAKAMVTEMCLGEEDFQQLQAQEGVAITFCLKEFRGLLSFAESANLNLSIHFDAPGRPAIFTIKDSLLDGHFVLATLSDTDSHSQDLGSPERHQPVPQLQAHSTPHPDDFANDDIDSYMIAMETTIGNEGSRVLPSISLSPGPQPPKSPGPHSEEEDEAEPSTVPGTPPPKKFRSLFFGSILAPVRSPQGPSPVLAEDSEGEG
chain 2: MPLLTQQIQDEDDQYSLVASLDNVRNLSTILKAIHFREHATCFATKNGIKVTVENAKCVQANAFIQAGIFQEFKVQEESVTFRINLTVLLDCLSIFGSSPMPGTLTALRMCYQGYGYPLMLFLEEGGVVTVCKINTQEPEETLDFDFCSTNVINKIILQSEGLREAFSELDMTSEVLQITMSPDKPYFRLSTFGNAGSSHLDYPKDSDLMEAFHCNQTQVNRYKISLLKPSTKALVLSCKVSIRTDNRGFLSLQYMIRNEDGQICFVEYYCCPDEEVPESES
chain 3: MKFRAKIVDGACLNHFTRISNMIAKLAKTCTLRISPDKLNFILCDKLANGGVSMWCELEQENFFNEFQMEGVSAENNEIYLELTSENLSRALKTAQNARALKIKLTNKHFPCLTVSVELLSMSSSSRIVTHDIPIKVIPRKLWKDLQEPVVPDPDVSIYLPVLKTMKSVVEKMKNISNHLVIEANLDGELNLKIETELVCVTTHFKDLGNPPLASESTHEDRNVEHMAEVHIDIRKLLQFLAGQQVNPTKALCNIVNNKMVHFDLLHEDVSLQYFIPALS
The molecule B1 came in with a percent reduction of HUS1 associated, against wild-type MUTYH of 80% and a percent reduction of RAD9 associated, against wild-type MUTYH greater than 50%.

B2: purified recombinant RAD9:RAD1:HUS1 (9–1–1) complex (complex)
chain 1: B1 chain 1
chain 2: B1 chain 2
chain 3: B1 chain 3
B2 registered a percent reduction of RAD9 bound, against wild-type MUTYH of 50%.
